The record followed here is the supplement of paper PMC10567573.

Sequences and labels used below:
B1: CSNK1G1 (parent)
chain: GSLPWQGLKADTLKERYQKIGDTK
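Also: lentivirally expressed fusions sorted by FACS into six bins by GFP to DsRed ratio, PSI derived from sequencing read proportions per bin multiplied by bin number.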

The variants in this data set derive from B1. The data set is described as follows: protein stability index of a GFP-peptide fusion (GPS, HEK-293T) (PSI 1-6); higher = more stable. The following applies: c terminus: a fixed tail appended.
As for GSLPWQGLKADTLKERYNKIGDTK [Q18N], the protein stability index turned out to be 4.11.
Next, GSLPWQGLKADTLEERYQKIGDTK [K14E]: 4.23; GSLPWQGLKADTLWERYQKIGDTK [K14W]: 2.74.
On to GSLPWQGLKADTLRERYQKIGDTK [K14R], for which the protein stability index turned out to be 3.8.
Next, GSLPWQGLKADTLVERYQKIGDTK [K14V]: 4.14; GSLPWQGLKADTLQERYQKIGDTK [K14Q]: 3.52.
In the case of GSLPWQGLKADTLFERYQKIGDTK [K14F] it was 3.13; in that of GSLPWQGLKADTLPERYQKIGDTK [K14P], 4.41.
Next, GSLPWQGLKADTLDERYQKIGDTK [K14D]: 4.02; GSLPWQGLKADTLSERYQKIGDTK [K14S]: 3.88.
As to GSLPWQGLKADTLGERYQKIGDTK [K14G], the protein stability index was 3.08.
In the case of GSLPWQGLKADTLYERYQKIGDTK [K14Y] it was 3.37; in that of GSLPWSGLKADTLKERYQKIGDTK [Q6S], 3.98.
In the case of GSLPWLGLKADTLKERYQKIGDTK [Q6L] it was 3.77; in that of GSLPWNGLKADTLKERYQKIGDTK [Q6N], 3.92; in that of GSLPWGGLKADTLKERYQKIGDTK [Q6G], 4.13.
With GSLPWDGLKADTLKERYQKIGDTK [Q6D], the protein stability index was 4.48.
Regarding GSLPWQGLKADTLKERYQKFGDTK [I20F], the protein stability index amounted to 4.26.
Next, GSLPWQGLKADTLKERYQKEGDTK [I20E]: 5.24; GSLPWQGLKADTLKERYQKLGDTK [I20L]: 3.86; GSLPWQGLKADTLKERYQKNGDTK [I20N]: 4.62.
In the case of GSLPWQGLKADTLKERYQKQGDTK [I20Q] it was 4.36; in that of GSLPWQGLKADTLKERYQKHGDTK [I20H], 4.47.
Next, GSLPWQGLKADTLKERYQKPGDTK [I20P]: 4.75; GSLGWQGLKADTLKERYQKIGDTK [P4G]: 4.02.
On to GSLMWQGLKADTLKERYQKIGDTK [P4M], for which the protein stability index is 4.55.
In the case of GSLSWQGLKADTLKERYQKIGDTK [P4S] it was 4.49.
Next, GSLQWQGLKADTLKERYQKIGDTK [P4Q]: 4.3; GSLVWQGLKADTLKERYQKIGDTK [P4V]: 4.09.
In the case of GSLTWQGLKADTLKERYQKIGDTK [P4T] it was 4.08; in that of GSLRWQGLKADTLKERYQKIGDTK [P4R], 4.37.
In the case of GSLPWQGLKADTLKERYQKILDTK [G21L], the protein stability index was 4.
In the case of GSLPWQGLKADTLKERYQKINDTK [G21N] it was 3.86; in that of GSLPWQGLKADTLKERYQKIVDTK [G21V], 3.64; in that of GSLPWQGLKADTLKERYQKIQDTK [G21Q], 4.44.
Next, GSLPWQGLKADTLKERYQKIIDTK [G21I]: 3.41; GSLPWQGLKADTLKERYQKIMDTK [G21M]: 3.87.
In the case of GSLPWQGLKADTLKERYQKIFDTK [G21F] it was 3.42.
Turning to GSLPWQGMKADTLKERYQKIGDTK [L8M], the protein stability index is 4.35.
With GSLPWQGIKADTLKERYQKIGDTK [L8I], the protein stability index turned out to be 4.13.
Regarding GSLPWQGNKADTLKERYQKIGDTK [L8N], the protein stability index turned out to be 4.58.
Next, GSLPWQGRKADTLKERYQKIGDTK [L8R]: 4.32; GSLPWQGTKADTLKERYQKIGDTK [L8T]: 4.9; GSLPWQGFKADTLKERYQKIGDTK [L8F]: 3.54.
Consider GSLPWQGHKADTLKERYQKIGDTK [L8H], for which the protein stability index stood at 4.36.
In the case of GHLPWQGLKADTLKERYQKIGDTK [S2H] it was 3.16.
In the case of GPLPWQGLKADTLKERYQKIGDTK [S2P] it was 3.95; in that of GALPWQGLKADTLKERYQKIGDTK [S2A], 4.14.
Next, GDLPWQGLKADTLKERYQKIGDTK [S2D]: 4.53.
In the case of GCLPWQGLKADTLKERYQKIGDTK [S2C], the protein stability index was determined as 3.22.
Next, GWLPWQGLKADTLKERYQKIGDTK [S2W]: 3.04; GYLPWQGLKADTLKERYQKIGDTK [S2Y]: 4.01; GSLPWQGLKADTLKERMQKIGDTK [Y17M]: 4.23.
As to GSLPWQGLKADTLKERVQKIGDTK [Y17V], the protein stability index turned out to be 4.04.
Next, GSLPWQGLKADTLKERGQKIGDTK [Y17G]: 5.36; GSLPWQGLKADTLKERIQKIGDTK [Y17I]: 4.21.
Next, GSLPWQGLKADTLKERYQKIGYTK [D22Y]: 2.98; GSLPWQGLKADTLKERYQKIGWTK [D22W]: 2.64.
On to GSLPWQGLKADTLKERYQKIGQTK [D22Q], for which the protein stability index was determined as 3.82.
Next, GSLPWQGLKADTLKERYQKIGNTK [D22N]: 3.2; GSLPWQGLKADTLKERYQKIGGTK [D22G]: 3.74; GSLPWQGLKADTLKERYQKIGFTK [D22F]: 3.
In the case of GSLPWQGLKADTLKERYQKIGETK [D22E] it was 3.91; in that of GSLPWQGLKADTLKERYQKIGKTK [D22K], 3.56.
Next, GSLPWQGLKADTLKERYQKIGTTK [D22T]: 3.52; GSLPWQGLKADTLKERYQKIGPTK [D22P]: 3.7.
GSLPWQGLKADTLKERYQKIGATK [D22A]: the protein stability index came to 3.06.
Regarding GSLPWQGLKADTLKERYQKIGDPK [T23P], the protein stability index was found to be 3.91.
In the case of GSLPWQGLKADTLKERYQKIGDSK [T23S] it was 4.53; in that of GSLPWQGLKADTLKERYQKIGDDK [T23D], 4.55.
In the case of GSLPWQGLKADTLKERYQKIGDRK [T23R] it was 3.84; in that of GSLPWQGLKADTLKERYQKIGDWK [T23W], 2.78; in that of GSLPWQGLKADTLKERYQKIGDLK [T23L], 3.82.
Next, GSLPWQGLKADTLKERYQKIGDCK [T23C]: 3.4; GSLPWQGLKADTLKERYQKIGDQK [T23Q]: 3.96; GSLPWQGLKADTLKERYQKIGDYK [T23Y]: 3.36.
On to GSLPWQGLKADTLKERYQKIGDEK [T23E], for which the protein stability index is 4.68.
Next, GSLPWQGLKADTLKERYQKIGDVK [T23V]: 4.01.
In the case of GSLPWQGLKADQLKERYQKIGDTK [T12Q] it was 4.19; in that of GSLPWQGLKADGLKERYQKIGDTK [T12G], 3.83; in that of GSLPWQGLKADNLKERYQKIGDTK [T12N], 4.07.
Next, GSLPWQGLKADFLKERYQKIGDTK [T12F]: 2.86.
Turning to GSLPWQGLKADMLKERYQKIGDTK [T12M], the protein stability index stood at 3.94.
In the case of GSLPWQGLKTDTLKERYQKIGDTK [A10T] it was 4.48; in that of GSLPWQGLKWDTLKERYQKIGDTK [A10W], 3.56.
Next, GSLPWQGLKSDTLKERYQKIGDTK [A10S]: 4.2; GSLPWQGLKIDTLKERYQKIGDTK [A10I]: 3.6; GSLPWQGLKMDTLKERYQKIGDTK [A10M]: 3.7.
Turning to GSLPWQGLKRDTLKERYQKIGDTK [A10R], the protein stability index was found to be 4.06.
In the case of GSLPWQGLKVDTLKERYQKIGDTK [A10V] it was 4.19; in that of GSLPWQGLKGDTLKERYQKIGDTK [A10G], 4.46.
In the case of GSLPWQGLKDDTLKERYQKIGDTK [A10D] it was 5.01; in that of GSLPWQGLKYDTLKERYQKIGDTK [A10Y], 3.63; in that of GSLPWQGLKCDTLKERYQKIGDTK [A10C], 3.48.
